# Positions count from the first letter of the chain named. Names may count otherwise. “And” between values parts separate entries of the source, which are not always exact repeats. Equal values may be shown once.
# B1: E-S0 (mouse E-selectin lectin and EGF domains, no SCR domains) (domain or fragment)
# chain: WYYNASSELMTYDEASAYCQRDYTHLVAIQNKEEINYLNSNLKHSPSYYWIGIRKVNNVWIWVGTGKPLTEEAQNWAPGEPNNKQRNEDCVEIYIQRTKDSGMWNDERCNKKKLALCYTASCTNASCSGHGECIETINSYTCKCHPGFLGPNCEQ
# B2: E-S6 (monomeric full-length extracellular mouse E-selectin) (domain or fragment)
# chain: WYYNASSELMTYDEASAYCQRDYTHLVAIQNKEEINYLNSNLKHSPSYYWIGIRKVNNVWIWVGTGKPLTEEAQNWAPGEPNNKQRNEDCVEIYIQRTKDSGMWNDERCNKKKLALCYTASCTNASCSGHGECIETINSYTCKCHPGFLGPNCEQAVTCKPQEHPDYGSLNCSHPFGPFSYNSSCSFGCKRGYLPSSMETTVRCTSSGEWSAPAPACHVVECEALTHPAHGIRKCSSNPGSYPWNTTCTFDCVEGYRRVGAQNLQCTSSGIWDNETPSCKAVTCDAIPQPQNGFVSCSHSTAGELAFKSSCNFTCEQSFTLQGPAQVECSAQGQWTPQIPVCKAVQCEALSAPQQGNMKCLPSASGPFQNGSSCEFSCEEGFELKGSRRLQCGPRGEWDSKKPTCSAVKCDDVPRPQNGVMECAHATTGEFTYKSSCAFQCNEGFSLHGSAQLECTSQGKWTQEVPSCQVVQCPSLDVPGKMNMSCSGTAVFGTVCEFTCPDDWTLNGSAVLTCGATGRWSGMPPTCEAPVSPTRP
# B3: E-S2-A28H (E-S2 with the A28H mutation in the lectin domain) (domain or fragment)
# chain: WYYNASSELMTYDEASAYCQRDYTHLVHIQNKEEINYLNSNLKHSPSYYWIGIRKVNNVWIWVGTGKPLTEEAQNWAPGEPNNKQRNEDCVEIYIQRTKDSGMWNDERCNKKKLALCYTASCTNASCSGHGECIETINSYTCKCHPGFLGPNCEQAVTCKPQEHPDYGSLNCSHPFGPFSYNSSCSFGCKRGYLPSSMETTVRCTSSGEWSAPAPACHVVECEALTHPAHGIRKCSSNPGSYPWNTTCTFDCVEGYRRVGAQNLQCTSSGIWDNETPSCKA
# B4: E-S2 (truncated mouse E-selectin with only the first two SCR domains) (domain or fragment)
# chain: B3 chain with H28A
# Biological target: T1, CD44/HCELL (hematopoietic cell E- and/or L-selectin ligand) (human (endogenous in KG1a), UniProt P16070-12 21-361)
# Experiment: SPR
# T1 sequence (P16070 other isoform, or with tags, fused parts or gaps): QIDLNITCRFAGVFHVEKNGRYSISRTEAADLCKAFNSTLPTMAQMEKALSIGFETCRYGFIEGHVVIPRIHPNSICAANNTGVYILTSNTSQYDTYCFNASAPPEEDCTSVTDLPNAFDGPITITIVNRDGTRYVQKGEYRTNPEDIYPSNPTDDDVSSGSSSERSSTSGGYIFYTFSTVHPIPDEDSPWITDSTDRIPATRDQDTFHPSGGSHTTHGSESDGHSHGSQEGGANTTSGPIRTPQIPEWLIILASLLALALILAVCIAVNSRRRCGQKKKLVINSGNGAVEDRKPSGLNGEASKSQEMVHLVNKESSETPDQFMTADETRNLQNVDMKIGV
row,Binder,Kd
1,B1,18700 nM
2,B2,1700 nM
3,B3,1190 nM

# Biological target: T1, CD44/HCELL (hematopoietic cell E- …)
# Experiment: SPR
# Remark: another data set of the same source
row,Binder,koff
1,B1,5e-05 s⁻¹ and 7e-05 s⁻¹
2,B2,0.000225 s⁻¹ and 0.00014 s⁻¹
3,B3,0.0002 s⁻¹ and 0.00011 s⁻¹
4,B4,0.00016 s⁻¹ and 0.00014 s⁻¹

# — paper PMC7076219 (2020)
